# Measurements from patent publication US20230312742A1 (Y MABS THERAPEUTICS, published 2023).
# Target: human CD38 antigen (recombinant human CD38 protein) (human, UniProt P28907 43-300, limits assumed)
# Experiment: SPR, IgG captured on anti-human Fc, human CD38 in solution;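 note: humanized IgG captured on an amine-coupled anti-human Fc HC30M chip, with human CD38 injected as a dilution series from 1000 nM downward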
row,Binder,Kd [nM]
1,"L1H1 (antibody, V domains shown, Humanized AT13/5 IgG, VL1 + VH1) VH: QVQLQESGPGLVKPSETLSLTCTVSGFSLTSYGVHWIRQPPGKGLEWIGVMWRGGSTDYNPSLKSRVTISKDNSKRQFSLKLSSVTAADTAVYYCAKSMITTGFVMDSWGQGTLVTVSS VL: DIQMTQSPSSLSASVGDRVTITCRASEDIYNRLTWYQQKPGKAPKLLLSGATSLETGVPSRFSGSGSGKDYTLTISSLQPEDFATYYCQQYWSNPYTFGGGTKVEIK",870
2,"L1H5 (antibody, V domains shown, Humanized AT13/5 IgG, VL1 + VH5) VH: QVQLQESGPGLVKPSETLSLTCTVSGFSLTSYGVHWIRQPPGKGLEWIGVMWRGGSTDYNPSLKSRVTISVDTSKNQFSFKLSSVTAADTAIYYCAKSMITTGFVMDSWGQGTLVTVSS VL: DIQMTQSPSSLSASVGDRVTITCRASEDIYNRLTWYQQKPGKAPKLLLSGATSLETGVPSRFSGSGSGKDYTLTISSLQPEDFATYYCQQYWSNPYTFGGGTKVEIK",1800
3,"L2H3 (antibody, V domains shown, Humanized AT13/5 IgG, VL2 + VH3) VH: QVQLQESGPGLVKPSETLSITCTVSGFSLTSYGVHWIRQPPGKGLEWIGVMWRGGSTDYNPSLKSRVTISKDTSKNQFSLKLSSLTAADTAVYYCAKSMITTGFVMDSWGQGTLVTVSS VL: DIQMTQSPSSLSASVGDRVTITCRASEDIYNRLAWYQQKPGKAPKLLLSGATSLETGVPSRFSGSGSGTDYTLTISSLQPEDFATYYCQQYWSNPYTFGGGTKVEIK",830
4,"L3H3 (antibody, V domains shown, Humanized AT13/5 IgG, VL3 + VH3) VH: QVQLQESGPGLVKPSETLSITCTVSGFSLTSYGVHWIRQPPGKGLEWIGVMWRGGSTDYNPSLKSRVTISKDTSKNQFSLKLSSLTAADTAVYYCAKSMITTGFVMDSWGQGTLVTVSS VL: DIQMTQSPSSLSASVGDRVTITCRASEDIYNRLTWYQQKPGKAPKLLLSGATSLETGVPSRFSGSGSGTDYTLTISSLQPEDFATYYCQQYWSNPYTFGGGTKVEIK",1200
5,"L2H7 (antibody, V domains shown, Humanized AT13/5 IgG, VL2 + VH7) VH: QVQLKQSGPGLVKPSETLSLTCTVSGFSLTSYGVHWIRQPPGKGLEWIGVMWRGGSTNYNPSLKSRLTISVDTSKNQFSLKLSSVTAADTAVYYCAKSMITTGFVMDSWGQGTLVTVSS VL: DIQMTQSPSSLSASVGDRVTITCRASEDIYNRLAWYQQKPGKAPKLLLSGATSLETGVPSRFSGSGSGTDYTLTISSLQPEDFATYYCQQYWSNPYTFGGGTKVEIK",390
6,"L4H4 (antibody, V domains shown, Humanized AT13/5 IgG, VL4 + VH4) VH: QVQLQESGPGLVKPSETLSLTCTVSGFSLTSYGVHWIRQPPGKGLEWIGVMWRGGSTDYNPSLKSRVTISVDTSKRQVSLKLSSVTAADTAVYYCAKSMITTGFVMDSWGQGTLVTVSS VL: DIQMTQSPSSLSASVGDRVTITCRASEDIYNRLTWYQQKPGKAPKLLLYGATSLETGVPSRFSGSGSGKDYTLTISSLQPEDFATYYCQQYWSNPYTFGGGTKVEIK",140
7,"L3H2 (antibody, V domains shown, Humanized AT13/5 IgG, VL3 + VH2) VH: QVQLQESGPGLVKPSETLSLTCTVSGFSLTSYGVHWVRQPPGKGLEWIGVMWRGGSTDYNPSLKSRVTISKDNSKRQFSLKMSSVTAADTAVYYCAKSMITTGFVMDSWGQGTLVTVSS VL: DIQMTQSPSSLSASVGDRVTITCRASEDIYNRLTWYQQKPGKAPKLLLSGATSLETGVPSRFSGSGSGTDYTLTISSLQPEDFATYYCQQYWSNPYTFGGGTKVEIK",460
8,"L1H6 (antibody, V domains shown, Humanized AT13/5 IgG, VL1 + VH6) VH: QVQLQESGPGLVKPSETLSLTCTVSGFSLTSYGVHWIRQPPGKGLEWLGVMWRGGSTNYNPSLKSRVTISKDTSKNQFSLKLSSVTAADTAVYYCAKSMITTGFVMDSWGQGTLVTVSS VL: DIQMTQSPSSLSASVGDRVTITCRASEDIYNRLTWYQQKPGKAPKLLLSGATSLETGVPSRFSGSGSGKDYTLTISSLQPEDFATYYCQQYWSNPYTFGGGTKVEIK",31
9,"L4H2 (antibody, V domains shown, Humanized AT13/5 IgG, VL4 + VH2) VH: QVQLQESGPGLVKPSETLSLTCTVSGFSLTSYGVHWVRQPPGKGLEWIGVMWRGGSTDYNPSLKSRVTISKDNSKRQFSLKMSSVTAADTAVYYCAKSMITTGFVMDSWGQGTLVTVSS VL: DIQMTQSPSSLSASVGDRVTITCRASEDIYNRLTWYQQKPGKAPKLLLYGATSLETGVPSRFSGSGSGKDYTLTISSLQPEDFATYYCQQYWSNPYTFGGGTKVEIK",250
10,"L3H4 (antibody, V domains shown, Humanized AT13/5 IgG, VL3 + VH4) VH: QVQLQESGPGLVKPSETLSLTCTVSGFSLTSYGVHWIRQPPGKGLEWIGVMWRGGSTDYNPSLKSRVTISVDTSKRQVSLKLSSVTAADTAVYYCAKSMITTGFVMDSWGQGTLVTVSS VL: DIQMTQSPSSLSASVGDRVTITCRASEDIYNRLTWYQQKPGKAPKLLLSGATSLETGVPSRFSGSGSGTDYTLTISSLQPEDFATYYCQQYWSNPYTFGGGTKVEIK",1200
11,"L3H1 (antibody, V domains shown, Humanized AT13/5 IgG, VL3 + VH1) VH: QVQLQESGPGLVKPSETLSLTCTVSGFSLTSYGVHWIRQPPGKGLEWIGVMWRGGSTDYNPSLKSRVTISKDNSKRQFSLKLSSVTAADTAVYYCAKSMITTGFVMDSWGQGTLVTVSS VL: DIQMTQSPSSLSASVGDRVTITCRASEDIYNRLTWYQQKPGKAPKLLLSGATSLETGVPSRFSGSGSGTDYTLTISSLQPEDFATYYCQQYWSNPYTFGGGTKVEIK",650
12,"L3H7 (antibody, V domains shown, Humanized AT13/5 IgG, VL3 + VH7) VH: QVQLKQSGPGLVKPSETLSLTCTVSGFSLTSYGVHWIRQPPGKGLEWIGVMWRGGSTNYNPSLKSRLTISVDTSKNQFSLKLSSVTAADTAVYYCAKSMITTGFVMDSWGQGTLVTVSS VL: DIQMTQSPSSLSASVGDRVTITCRASEDIYNRLTWYQQKPGKAPKLLLSGATSLETGVPSRFSGSGSGTDYTLTISSLQPEDFATYYCQQYWSNPYTFGGGTKVEIK",100
13,"L1H7 (antibody, V domains shown, Humanized AT13/5 IgG, VL1 + VH7) VH: QVQLKQSGPGLVKPSETLSLTCTVSGFSLTSYGVHWIRQPPGKGLEWIGVMWRGGSTNYNPSLKSRLTISVDTSKNQFSLKLSSVTAADTAVYYCAKSMITTGFVMDSWGQGTLVTVSS VL: DIQMTQSPSSLSASVGDRVTITCRASEDIYNRLTWYQQKPGKAPKLLLSGATSLETGVPSRFSGSGSGKDYTLTISSLQPEDFATYYCQQYWSNPYTFGGGTKVEIK",8500
14,"L3H6 (antibody, V domains shown, Humanized AT13/5 IgG, VL3 + VH6) VH: QVQLQESGPGLVKPSETLSLTCTVSGFSLTSYGVHWIRQPPGKGLEWLGVMWRGGSTNYNPSLKSRVTISKDTSKNQFSLKLSSVTAADTAVYYCAKSMITTGFVMDSWGQGTLVTVSS VL: DIQMTQSPSSLSASVGDRVTITCRASEDIYNRLTWYQQKPGKAPKLLLSGATSLETGVPSRFSGSGSGTDYTLTISSLQPEDFATYYCQQYWSNPYTFGGGTKVEIK",1300
15,"L2H2 (antibody, V domains shown, Humanized AT13/5 IgG, VL2 + VH2) VH: QVQLQESGPGLVKPSETLSLTCTVSGFSLTSYGVHWVRQPPGKGLEWIGVMWRGGSTDYNPSLKSRVTISKDNSKRQFSLKMSSVTAADTAVYYCAKSMITTGFVMDSWGQGTLVTVSS VL: DIQMTQSPSSLSASVGDRVTITCRASEDIYNRLAWYQQKPGKAPKLLLSGATSLETGVPSRFSGSGSGTDYTLTISSLQPEDFATYYCQQYWSNPYTFGGGTKVEIK",910
16,"L1H4 (antibody, V domains shown, Humanized AT13/5 IgG, VL1 + VH4) VH: QVQLQESGPGLVKPSETLSLTCTVSGFSLTSYGVHWIRQPPGKGLEWIGVMWRGGSTDYNPSLKSRVTISVDTSKRQVSLKLSSVTAADTAVYYCAKSMITTGFVMDSWGQGTLVTVSS VL: DIQMTQSPSSLSASVGDRVTITCRASEDIYNRLTWYQQKPGKAPKLLLSGATSLETGVPSRFSGSGSGKDYTLTISSLQPEDFATYYCQQYWSNPYTFGGGTKVEIK",300
17,"L2H6 (antibody, V domains shown, Humanized AT13/5 IgG, VL2 + VH6) VH: QVQLQESGPGLVKPSETLSLTCTVSGFSLTSYGVHWIRQPPGKGLEWLGVMWRGGSTNYNPSLKSRVTISKDTSKNQFSLKLSSVTAADTAVYYCAKSMITTGFVMDSWGQGTLVTVSS VL: DIQMTQSPSSLSASVGDRVTITCRASEDIYNRLAWYQQKPGKAPKLLLSGATSLETGVPSRFSGSGSGTDYTLTISSLQPEDFATYYCQQYWSNPYTFGGGTKVEIK",1900
18,"L1H2 (antibody, V domains shown, Humanized AT13/5 IgG, VL1 + VH2) VH: QVQLQESGPGLVKPSETLSLTCTVSGFSLTSYGVHWVRQPPGKGLEWIGVMWRGGSTDYNPSLKSRVTISKDNSKRQFSLKMSSVTAADTAVYYCAKSMITTGFVMDSWGQGTLVTVSS VL: DIQMTQSPSSLSASVGDRVTITCRASEDIYNRLTWYQQKPGKAPKLLLSGATSLETGVPSRFSGSGSGKDYTLTISSLQPEDFATYYCQQYWSNPYTFGGGTKVEIK",400
19,"L4H3 (antibody, V domains shown, Humanized AT13/5 IgG, VL4 + VH3) VH: QVQLQESGPGLVKPSETLSITCTVSGFSLTSYGVHWIRQPPGKGLEWIGVMWRGGSTDYNPSLKSRVTISKDTSKNQFSLKLSSLTAADTAVYYCAKSMITTGFVMDSWGQGTLVTVSS VL: DIQMTQSPSSLSASVGDRVTITCRASEDIYNRLTWYQQKPGKAPKLLLYGATSLETGVPSRFSGSGSGKDYTLTISSLQPEDFATYYCQQYWSNPYTFGGGTKVEIK",200
20,"L2H1 (antibody, V domains shown, Humanized AT13/5 IgG, VL2 + VH1) VH: QVQLQESGPGLVKPSETLSLTCTVSGFSLTSYGVHWIRQPPGKGLEWIGVMWRGGSTDYNPSLKSRVTISKDNSKRQFSLKLSSVTAADTAVYYCAKSMITTGFVMDSWGQGTLVTVSS VL: DIQMTQSPSSLSASVGDRVTITCRASEDIYNRLAWYQQKPGKAPKLLLSGATSLETGVPSRFSGSGSGTDYTLTISSLQPEDFATYYCQQYWSNPYTFGGGTKVEIK",950
21,"L1H3 (antibody, V domains shown, Humanized AT13/5 IgG, VL1 + VH3) VH: QVQLQESGPGLVKPSETLSITCTVSGFSLTSYGVHWIRQPPGKGLEWIGVMWRGGSTDYNPSLKSRVTISKDTSKNQFSLKLSSLTAADTAVYYCAKSMITTGFVMDSWGQGTLVTVSS VL: DIQMTQSPSSLSASVGDRVTITCRASEDIYNRLTWYQQKPGKAPKLLLSGATSLETGVPSRFSGSGSGKDYTLTISSLQPEDFATYYCQQYWSNPYTFGGGTKVEIK",810
22,"L4H1 (antibody, V domains shown, Humanized AT13/5 IgG, VL4 + VH1) VH: QVQLQESGPGLVKPSETLSLTCTVSGFSLTSYGVHWIRQPPGKGLEWIGVMWRGGSTDYNPSLKSRVTISKDNSKRQFSLKLSSVTAADTAVYYCAKSMITTGFVMDSWGQGTLVTVSS VL: DIQMTQSPSSLSASVGDRVTITCRASEDIYNRLTWYQQKPGKAPKLLLYGATSLETGVPSRFSGSGSGKDYTLTISSLQPEDFATYYCQQYWSNPYTFGGGTKVEIK",100
